Experiment [1] deals with T1, mutant antithrombin III AT3/SLGR-KI (human, UniProt P01008 33-464).
T1 construct: RCL residues IAGRSL are replaced by SLGRKI; also called AT3 (AT3/SLGR-KI)
T1 chain: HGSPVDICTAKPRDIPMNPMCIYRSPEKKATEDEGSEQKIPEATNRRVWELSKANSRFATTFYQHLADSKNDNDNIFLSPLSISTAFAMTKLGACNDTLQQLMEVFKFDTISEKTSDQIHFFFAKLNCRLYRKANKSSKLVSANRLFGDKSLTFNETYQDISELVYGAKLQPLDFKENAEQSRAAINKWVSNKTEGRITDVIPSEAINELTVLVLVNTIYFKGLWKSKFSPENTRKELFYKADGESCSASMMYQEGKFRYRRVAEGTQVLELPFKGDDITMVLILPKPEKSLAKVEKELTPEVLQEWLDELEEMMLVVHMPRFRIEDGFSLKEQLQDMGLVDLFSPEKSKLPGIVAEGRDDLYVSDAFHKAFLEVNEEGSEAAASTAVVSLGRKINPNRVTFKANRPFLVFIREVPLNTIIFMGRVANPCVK
Nature of the experiment: phage display selection: complex with His-tagged AT3-SLGRKI bait captured by anti-His antibody on plate.

Experiment [2] has as its target T1, mutant antithrombin III AT3/SLGR-KI. Described as above.

Changes are numbered by the printed parent chain. Names and notes keep the numbering of the source. Where two headings read alike, the source gives them in different places.

B1: Mutant MT-SP1 clone CPC-0027484 (phage) (enzyme)
chain: VVGGTDADEGEWPWQVSLHALGQGHICGASLISPNWLVSAAHCYIDDRGFRYSDPTQWTAFLGLHDQSQRSAPGVQERRLKRIISHPFFKDFTFDYDIALLELEKPAEYSSMVRPISLPDASHVFPAGKAIWVTGWGHTQYGGTGALILQKGEIRVINQTTCENLLPQQITPRMMCVGFLSGGVDSCQGDSGGPLSSVEADGRIFQAGVVSWGDGCAQRNKPGVYTRLPLFRDWIKENTGVSGSSGGGSEGGGSEGGGSEGGGSGGGSGSGDFDYEKMANANKGAMTENADENALQSDAKGKLDSVATDYGAAIDGFIGDVSGLANGNGATGDFAGSNSQMAQVGDGDNSPLMNNFRQYLPSLPQSVECRPFVFSAGKPYEFSIDCDKINLFRGVFAFLLYVATFMYVFSTFANILRNKES
notes: N95K/C122S
For B1, the binding result in experiment [1] is “binds”.

B2: Mutant MT-SP1 clone CPC-0025387 (phage) (enzyme)
chain: B1 chain with I26F, K90N
notes: I41F/C122S
For the molecule B2, the binding result in experiment [2] is “binds”.

B3: Mutant MT-SP1 clone CPC-0028017 (phage) (enzyme)
chain: B1 chain with K90N, D214V
notes: C122S/D217V
Consider B3, for which the binding result in experiment [2] was “binds”.

B4: Mutant MT-SP1 clone CPC-0028333 (phage) (enzyme)
chain: B1 chain with T59K, F88L, K90N, F92Y, D214V
notes: T65K/F93L/F97Y/C122S/D217V
On to B4, for which, in experiment [2], the binding result was “binds”.

B5: Mutant MT-SP1 clone CPC-0028341 (phage) (enzyme)
chain: B1 chain with I26T, K90N, P167S, Q206L
notes: I41T/C122S/P173S/Q209L
Take B5: the binding result in experiment [1] is on record as “binds”.

These data come from US20090123452A1 (TORREY PINES INSTITUTE FOR MOLECULAR STUDIES AND CATALYST …, published 2009).
